According to patent US20230053214A1 (MACQUARIE UNIVERSITY, published 2023):
Changes are numbered by the printed parent chain. In names and notes the source's numbering stands. Blank lines part the entries; values can stand above or below the binder they belong to.

Key:
[1] = molecular target: T1, rat PSD95 (FLAG-PSD-95), expressed in transfected cells (rat, UniProt P31016 1-724); experiment: co-IP with PSD-95 from transfected cells, immunoblot
T1 construct: eGFP-PSD-95 (293T lysate) was used for microscale thermophoresis and PSD-95 internally tagged with mCherry for FLIM/FRET; not shown: FLAG tag
T1 sequence (P31016 whole entry): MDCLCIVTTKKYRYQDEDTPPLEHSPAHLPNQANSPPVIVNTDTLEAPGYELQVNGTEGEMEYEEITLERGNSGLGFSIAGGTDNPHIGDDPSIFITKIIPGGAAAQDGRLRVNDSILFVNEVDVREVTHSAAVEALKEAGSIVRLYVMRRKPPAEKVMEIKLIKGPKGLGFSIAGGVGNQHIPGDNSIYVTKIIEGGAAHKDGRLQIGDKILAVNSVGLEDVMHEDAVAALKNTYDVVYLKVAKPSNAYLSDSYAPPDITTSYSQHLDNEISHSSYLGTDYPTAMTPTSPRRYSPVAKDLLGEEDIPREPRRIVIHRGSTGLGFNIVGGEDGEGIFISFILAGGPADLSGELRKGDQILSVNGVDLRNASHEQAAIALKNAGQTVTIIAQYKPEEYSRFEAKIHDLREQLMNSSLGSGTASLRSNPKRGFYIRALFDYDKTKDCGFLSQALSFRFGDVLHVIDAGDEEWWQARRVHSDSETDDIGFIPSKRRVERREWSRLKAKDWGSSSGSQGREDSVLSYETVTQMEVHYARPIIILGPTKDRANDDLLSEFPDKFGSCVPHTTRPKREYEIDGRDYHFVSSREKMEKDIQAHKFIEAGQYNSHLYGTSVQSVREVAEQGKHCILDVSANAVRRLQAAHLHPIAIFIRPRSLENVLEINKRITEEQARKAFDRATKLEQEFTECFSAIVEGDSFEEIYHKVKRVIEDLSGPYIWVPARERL

[2] = molecular target: T1, rat PSD95 (FLAG-PSD-95), expressed in …; experiment: co-IP from transfected cells, immunoblot
Protocol: Briefly, cells were lysed in pTNN buffer (20 mM Tris pH7.4, 150 mM NaCl, 1 mM EDTA, 1 mM Na3VO4, 1 mM NaF, 1 mM glycerophosphate, 2.5 mM Na₂H₂P₂O₇, 1 mM PMSF, protease inhibitors (Complete, Roche), 1% NP-40 substitute (Sigma-Aldrich)) on ice. Lysates were cleared by centrifugation (16,000×g/10 min/4° C.). Protein concentration was determined (DC Protein Assay, BioRad) and 200 μg of lysate incubated with antibody (1:400) for 3 h on a rotator at 4° C. Equilibrated and blocked protein G-beads (Life Technologies) were incubated with lysates for 45 min on a rotator at 4° C. Beads were then washed 3 times and incubated in sample buffer for 5 min at 95° C. before SDS-PAGE. Cortical or hippocampal tissues were homogenized in RIPA buffer (20 mM Tris pH8.0, 150 mM NaCl, 1 mM EDTA, 1 mM Na3VO4, 1 mM NaF, 1 mM glycerophosphate, 2.5 mM sodium pyrophosphate, 1 mM PMSF, protease inhibitors (Complete, Roche), 1% NP-40 substitute (Sigma-Aldrich), SDS, sodium deoxycholate) and subjected to immunoprecipitation as outlined above.

[3] = molecular target: T2, human tau (441 amino acids), wild-type (human, UniProt P10636 1-758); experiment: co-IP with V5-tagged tau from transfected cells, immunoblot
T2 construct: Expressed in transfected cells for co-IP; GST-tau (E. coli) was used for microscale thermophoresis and GST pulldown, eGFP-tau for FLIM/FRET, recombinant tau for kinase assays; also called hTau40; WT tau; not shown: V5 tag from vector pcDNA3.2/V5-DEST
T2 sequence (P10636 other isoform, or with tags, fused parts or gaps): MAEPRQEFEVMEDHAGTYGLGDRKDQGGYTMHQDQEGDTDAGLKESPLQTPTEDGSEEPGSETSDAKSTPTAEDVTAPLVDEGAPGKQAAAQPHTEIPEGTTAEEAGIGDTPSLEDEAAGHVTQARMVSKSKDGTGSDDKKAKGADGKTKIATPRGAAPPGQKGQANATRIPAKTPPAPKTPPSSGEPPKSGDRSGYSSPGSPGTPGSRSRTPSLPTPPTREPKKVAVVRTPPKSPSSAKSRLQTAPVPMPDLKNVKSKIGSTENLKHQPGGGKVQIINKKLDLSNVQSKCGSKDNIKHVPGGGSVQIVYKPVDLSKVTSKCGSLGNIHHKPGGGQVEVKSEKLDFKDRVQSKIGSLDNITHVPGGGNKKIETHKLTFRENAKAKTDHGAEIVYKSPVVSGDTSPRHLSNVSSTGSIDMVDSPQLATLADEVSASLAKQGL

- binding result [1]: no binding
B2: CA p38γ with deletion of the C-terminal PDZ-binding motif (ΔPm) (enzyme)
chain: MSSPPPARSGFYRQEVTKTAWEVRAVYRDLQPVGSGAYGAVCSAVDGRTGAKVAIKKLYRPFQSELFAKRAYRELRLLKHMRHENVIGLLDVFTPDETLDDFTDFYLVMPFMGTDLGKLMKHEKLGEDRIQFLVYQMLKGLRYIHAAGIIHRDLKPGNLAVNEDCELKILDFGLARQAASEMTGYVVTRWYRAPEVILNWMRYTQTVDIWSVGCIMAEMITGKTLFKGSDHLDQLKEIMKVTGTPPAEFVQRLQSDEAKNYMKGLPELEKKDFASILTNASPLAVNLLEKMLVLDAEQRVTAGEALAHPYFESLHDTEDEPQVQKYDDSFDDVDRTLDEWKRVTYKEVLSFKPPRQLGARVSK
notes: also called p38γ^CA ΔPm; ΔPDZm; not shown: N-terminal HA-tag

- binding result [2]: binds
- binding result [3]: binds
B4: constitutive active p38γ (D179A), HA-tagged (enzyme)
chain: MSSPPPARSGFYRQEVTKTAWEVRAVYRDLQPVGSGAYGAVCSAVDGRTGAKVAIKKLYRPFQSELFAKRAYRELRLLKHMRHENVIGLLDVFTPDETLDDFTDFYLVMPFMGTDLGKLMKHEKLGEDRIQFLVYQMLKGLRYIHAAGIIHRDLKPGNLAVNEDCELKILDFGLARQAASEMTGYVVTRWYRAPEVILNWMRYTQTVDIWSVGCIMAEMITGKTLFKGSDHLDQLKEIMKVTGTPPAEFVQRLQSDEAKNYMKGLPELEKKDFASILTNASPLAVNLLEKMLVLDAEQRVTAGEALAHPYFESLHDTEDEPQVQKYDDSFDDVDRTLDEWKRVTYKEVLSFKPPRQLGARVSKETPL
notes: also called p38γ^CA; p38γ CA; not shown: N-terminal HA-tag

Continued, binder first:

B1: WT p38γ with deletion of the C-terminal PDZ-binding motif (ΔPm) (enzyme)
chain: B2 chain with A179D
notes: also called p38γ ΔPm; ΔPDZm; not shown: N-terminal HA-tag
- binding result [1]: no binding

B3: human wild-type p38γ (HA-tagged) (enzyme)
chain: B4 chain with A179D
notes: Recombinant p38γ from bacteria was used in the in vitro kinase assays; also called p38γ WT; wild-type p38γ (WT); not shown: N-terminal HA-tag
- binding result [2]: binds
- binding result [3]: binds
